Laboratory results as given in PMC10244618.
Where “and” joins values, the source holds several entries; their conditions need not be identical. Equal entries are not always repeated.

B1: NF2 (merlin) isoform 7, human, full length (507 aa, lacks exons 2-3 = isoform-1 residues 39-121; exon-16 C-terminus), P35240-4 (parent)
chain: MAGAIASRMSFSSLKRKQPKTFTVRIVTMDAEMEFNCEVKKQILDEKIYCPPEASVLLASYAVQAKYGDYDPSVHKRGFLAQEELLPKRVINLYQMTPEMWEERITAWYAEHRGRARDEAEMEYLKIAQDLEMYGVNYFAIRNKKGTELLLGVDALGLHIYDPENRLTPKISFPWNEIRNISYSDKEFTIKPLDKKIDVFKFNSSKLRVNKLILQLCIGNHDLFMRRRKADSLEVQQMKAQAREEKARKQMERQRLAREKQMREEAERTRDELERRLLQMKEEATMANEALMRSEETADLLAEKAQITEEEAKLLAQKAAEAEQEMQRIKATAIRTEEEKRLMEQKVLEAEVLALKMAEESERRAKEADQLKQDLQEAREAERRAKQKLLEIATKPTYPPMNPIPAPLPPDIPSFNLIGDSLSFDFKDTDMKRLSMEIEKEKVEYMEKSKHLQEQLNELKTEIEALKLKERETALDILHNENSDRGGSSKHNTIKKPQAQGRRPICI

Variants of: B1
Assay: reverse yeast two-hybrid deep mutational scan (rY2H-seq): NF2 isoform 7 mutant library as bait mated with wild-type prey strains; selection on medium lacking adenine for non-interacting pairs; NextSeq paired-end sequencing; enrichment vs …
Conditions: yeast diploids after mating (RBait_S3 x RPrey_S3), 30 °C, selection for reporter genes on NB agar, HIGHER = WEAKER BINDING (the opposite of display enrichments): higher = stronger loss of interaction: reverse Y2H selects yeast in which bait and prey do NOT interact (growth without adenine), so a …, hits-only table, scale: rY2H score, numbering: uniprot, sequence starts at 1
[1] = with EMILIN1 (elastin microfibril interfacer 1), Q9Y6C2, human tyrosine kinase ABL2 co-expressed as the active kinase …
[2] = with KDM1A (lysine-specific histone demethylase 1A; the table's label AOF2 is a gene synonym of KDM1A), O60341, human ABL2 co-expressed as the kinase-dead K35M mutant …
[3] = with NF2 C-terminal domain (wild type; homomeric NF2-NF2 interaction), P35240, human ABL2 co-expressed as the kinase-dead K35M mutant …, partner unresolved
[4] = with PIK3R3 (phosphatidylinositol 3-kinase regulatory subunit gamma), Q92569, human tyrosine kinase ABL2 co-expressed as the active kinase …
[5] = with KDM1A (lysine-specific histone demethylase 1A; the table's label AOF2 is a gene synonym of KDM1A), O60341, human tyrosine kinase ABL2 co-expressed as the active kinase …

enrichment [1] | enrichment [2] | enrichment [3] | enrichment [4] | enrichment [5] | Variant
1.87 |  |  |  |  | S13F
 | 2.71 |  |  |  | N482L
 | 2.3 | 2.43 |  |  | N482T
1.95 and 2.03 | 3.29 |  | 1.55 |  | K340L
1.47 | 1.53 |  |  |  | N402L
2.62 |  |  |  |  | N402Q
1.55 |  |  |  |  | R248K
1.52 |  |  |  |  | R248P
13.1 and 10.8 | 17 |  |  |  | K304W
1.63 and 1.9 |  | 2.98 and 2.25 | 1.89 | 2.5 | I329K
12.8 |  |  |  |  | E264A
1.58 and 3.38 |  | 3.01 | 5.98 |  | S73L
1.74 |  | 2.73 |  |  | F415A
 | 2.26 and 2.39 | 2.06 | 4.1 | 2.59 and 2.4 | A385E
1.52 |  |  |  |  | P399K
2.33 |  |  |  |  | P399R
1.41 |  |  |  |  | V39G
2.07 | 3.56 | 2.52 |  |  | R364K
1.39 |  |  |  |  | R77W
3.11 and 8.92 | 6.74 | 1.99 |  | 5.6 | R379E
 | 2 |  |  | 2.04 | R379C
2.38 and 3.16 | 4.6 |  |  |  | A319L
 | 19.6 |  |  |  | Q500L
 | 2.1 | 2.32 |  |  | A365L
6 | 11.8 and 11.3 | 6.36 and 7.06 | 9.73 and 7.27 |  | K313T

enrichment [1] | enrichment [2] | enrichment [3] | enrichment [4] | enrichment [5] | Variant
 | 2.56 | 2.4 |  |  | K313L
2.69 and 1.81 | 2.15 | 2.61 | 4.98 |  | D369K
2.08 |  |  |  |  | T332S
4.79 | 1.86 and 5.52 | 2.4 |  | 2.16 | T332A
 | 14.7 |  | 36.3 |  | R227E
 | 1.65 | 1.46 |  |  | K191Y
 | 1.87 |  | 1.68 |  | I160C
 | 2.37 |  |  |  | T168D
2.55 |  |  | 6.22 |  | T168A
9.16 |  |  |  | 2.16 | A266K
 | 1.91 | 2.66 |  |  | E295K
18.6 |  |  |  |  | L314N
 | 2.5 | 4.14 and 3.2 |  |  | L167E
 | 1.67 |  |  |  | L167A
 | 2.31 |  |  |  | N457T
1.52 |  |  |  |  | K229L
1.8 |  |  |  |  | A287T
1.49 |  |  |  |  | T461I
 | 3.69 |  |  |  | K15E
 | 1.66 |  |  |  | K15L
2.6 | 1.85 |  |  | 4.79 | K330A
2.72 |  |  |  |  | D162P
 | 1.58 |  |  |  | E344V
 | 1.57 |  | 3.87 |  | A302T
1.67 | 1.47 |  |  |  | Q324Y

enrichment [1] | enrichment [2] | enrichment [3] | enrichment [4] | enrichment [5] | Variant
 | 1.58 |  |  |  | P410R
1.53 | 9.12 and 4.16 |  |  |  | P410K
4.1 | 2.24 |  |  |  | D428K
2.33 |  |  |  |  | E309A
 | 1.9 |  |  | 1.51 | E309L
 | 1.45 and 2.01 |  |  |  | Q370A
2.65 |  |  |  |  | M446V
2.16 |  |  |  |  | K386Q
7.62 | 5.27 |  |  |  | K386T
8.98 and 8.09 | 8.2 and 3.3 |  | 11.6 | 7.56 | R268E
4.44 |  |  |  |  | K170L
1.92 |  |  |  |  | D198N
1.59 |  |  |  |  | T189I
 | 5 |  |  | 2.29 and 3.4 | S361A
 | 2.37 |  |  |  | H112A
6.7 |  |  |  |  | N416A
2.76 |  |  |  |  | N416T
3.29 |  |  |  |  | N416R
1.85 |  |  |  |  | E464L
2.35 | 4.82 |  |  |  | Q279E
4.16 |  |  | 2.98 | 2.26 and 6.75 | T336K
 | 2.98 |  |  |  | T336L
2.07 |  |  |  |  | Q261Y
 | 2.37 |  | 1.48 and 2.46 |  | L158I
 | 3.21 |  |  |  | V352S

enrichment [1] | enrichment [2] | enrichment [3] | enrichment [4] | enrichment [5] | Variant
2.24 | 1.71 |  |  |  | A378T
 | 2.42 |  |  |  | D411C
4.36 |  | 2.08 |  |  | W175A
 | 2.59 |  |  |  | W175C
6.77 |  | 1.97 |  |  | W175E
2.05 |  |  |  |  | S55L
1.87 |  |  |  | 6.13 | D69K
4.18 |  | 6.66 | 5.19 |  | L375K
4.49 |  |  |  | 3.07 | L375A
1.41 |  |  |  |  | E252K
5.43 |  |  |  |  | D476V
 | 3.3 | 2.37 |  |  | M122A
5.67 |  |  | 4.09 |  | R270K
1.59 |  |  |  |  | I404K
 | 2.29 |  | 6.71 |  | Q64L
4.63 | 2.83 and 2.72 |  |  |  | L342T
5.21 and 8.08 | 6.37 | 4.75 | 10.7 |  | L390C
 | 2.3 |  |  |  | F173V
1.69 | 3.95 |  | 4.73 and 5.14 |  | F173S
3.91 and 4.27 |  |  |  |  | G146A
 | 2.32 |  |  |  | L353A
 | 9.11 |  |  |  | S423E
 | 1.46 |  |  | 1.65 | Q250D
 | 1.88 |  |  |  | L408K
 | 4.04 |  |  |  | A59S

enrichment [1] | enrichment [2] | enrichment [3] | enrichment [4] | enrichment [5] | Variant
1.71 |  |  |  |  | P98L
2.11 | 4.15 |  | 2.65 | 2.54 | P407K
4.09 |  |  |  |  | P407R
 | 2.05 |  | 2.62 |  | P407T
 | 1.84 |  |  | 3.93 and 3.02 | H159P
 | 3.49 |  | 6.11 | 1.44 | H159E
2.93 |  |  | 6.72 | 4.15 and 7.93 | H159L
 | 1.49 |  |  |  | C506S
1.65 | 2.37 | 2.83 | 3 and 1.89 |  | E382A
1.65 | 1.65 | 1.58 |  |  | S488R
 | 1.9 |  |  |  | A393L
1.55 |  |  | 3.14 |  | A393K
 | 7.18 |  | 4.62 | 6.77 | A358L
 | 2.89 |  |  |  | R384E
2.2 | 4.25 |  |  |  | D271L
2.34 |  |  |  |  | T397L
 | 4.85 |  | 10.6 |  | K460L
6.17 |  | 3.55 |  |  | K460E
 | 1.73 |  |  |  | S414E
 | 3.17 |  | 3.79 |  | S414L
1.56 |  | 1.47 |  |  | A128V
1.39 |  |  |  |  | M326R
5.72 |  | 2.32 and 4.81 |  | 3 | K469A

Variant | enrichment [1] | enrichment [2] | enrichment [3] | enrichment [4] | enrichment [5]
S60F | 3.78 |  |  |  | 
